Source: article doi:10.1101/538884 (bioRxiv, 2019)

Molecular target: the molecule itself
Assay: SEC

B1: HEV^440-691 (hepatitis E virus ORF1 residues 440-691) (domain or fragment, Hepatitis E virus (HEV), UniProt P33424 440-691, looked up)
chain: AGFHLDPRVLVFDESAPCHCRTAIRKAVSKFCCFMKWLGQECTCFLQPAEGVVGDQGHDNEAYEGSDVDPAESAISDISGSYVVPGTALQPLYQALDLPAEIVARAGRLTATVKVSQVDGRIDCETLLGNKTFRTSFVDGAVLETNGPERHNLSFDASQSTMAAGPFSLTYAASAAGLEVRYVAAGLDHRAVFAPGVSPRSAPGEVTAFCSALYRFNREAQRLSLTGNFWFHPEGLLGPFAPFSPGHVWESA
binding result: binds
